Measured values published in article PMC2756588.

What was measured:
Test in all cases: SPOT array
Pex13, P80667 = target: T1, Pex13, P80667; settings: median of control spots 1341
T1 sequence (P80667 295-386, looked up): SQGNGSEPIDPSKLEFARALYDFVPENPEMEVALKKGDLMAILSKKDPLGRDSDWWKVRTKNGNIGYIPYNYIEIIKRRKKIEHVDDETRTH

Abp1, P15891 = target: T2, Abp1, P15891; settings: median of control spots 935
T2 sequence (P15891 535-592, looked up): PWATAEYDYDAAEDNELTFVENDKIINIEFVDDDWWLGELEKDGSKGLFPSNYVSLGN

Myo5, Q04439 = target: T3, Myo5, Q04439; settings: median of control spots 471
T3 sequence (Q04439 1072-1160, looked up): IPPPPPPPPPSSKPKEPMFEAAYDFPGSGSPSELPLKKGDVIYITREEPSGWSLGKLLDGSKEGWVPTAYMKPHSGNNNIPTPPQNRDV

Lsb4, P32793 = target: T4, Lsb4, P32793; settings: median of control spots 397
T4 sequence (P32793 402-468, looked up): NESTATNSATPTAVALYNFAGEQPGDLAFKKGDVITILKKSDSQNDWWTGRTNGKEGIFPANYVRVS

Bzz1-1, P38822 = target: T5, Bzz1-1, P38822; settings: median of control spots 4446
T5 sequence (P38822 478-572, looked up): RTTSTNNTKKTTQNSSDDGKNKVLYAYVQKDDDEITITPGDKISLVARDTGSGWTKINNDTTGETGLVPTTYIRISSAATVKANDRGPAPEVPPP

Sla1-3, P32790 = target: T6, Sla1-3, P32790; settings: median of control spots 5475
T6 sequence (P32790 344-424, looked up): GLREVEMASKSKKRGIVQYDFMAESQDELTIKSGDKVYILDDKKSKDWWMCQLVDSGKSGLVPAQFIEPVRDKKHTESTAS

Rvs167, P39743 = settings: median of control spots 2707
Cdc25, P04821 = target: T7, Cdc25, P04821; settings: median of control spots 969
T7 sequence (P04821 50-136, looked up): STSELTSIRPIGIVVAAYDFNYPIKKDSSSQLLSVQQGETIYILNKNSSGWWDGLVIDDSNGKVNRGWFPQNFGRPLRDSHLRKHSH

Hse1, P38753 = target: T8, Hse1, P38753; settings: median of control spots 1727
T8 sequence (P38753 208-285, looked up): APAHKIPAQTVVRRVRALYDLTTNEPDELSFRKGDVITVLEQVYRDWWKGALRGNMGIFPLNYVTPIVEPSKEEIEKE

Sho1, P40073 = settings: median of control spots 1148
Bud14, P27637 = target: T9, Bud14, P27637; settings: median of control spots 956
T9 sequence (P27637 247-328, looked up): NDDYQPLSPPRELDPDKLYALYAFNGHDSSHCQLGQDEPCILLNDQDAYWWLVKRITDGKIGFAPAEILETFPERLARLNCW

GST = settings: median of control spots 978
Fus1, P11710 = target: T10, Fus1, P11710; settings: median of control spots 1200
T10 sequence (P11710 432-512, looked up): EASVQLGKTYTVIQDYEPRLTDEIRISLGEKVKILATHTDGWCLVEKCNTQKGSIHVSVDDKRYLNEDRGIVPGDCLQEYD

Myo3, P36006 = settings: median of control spots 468
Sla1-2, P32790 = target: T11, Sla1-2, P32790; settings: median of control spots 712
T11 sequence (P32790 60-140, looked up): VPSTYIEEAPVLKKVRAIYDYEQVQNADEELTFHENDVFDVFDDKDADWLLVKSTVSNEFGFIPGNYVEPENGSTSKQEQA

Boi1, P38041 = target: T12, Boi1, P38041; settings: median of control spots 1162
T12 sequence (P38041 1-86, looked up): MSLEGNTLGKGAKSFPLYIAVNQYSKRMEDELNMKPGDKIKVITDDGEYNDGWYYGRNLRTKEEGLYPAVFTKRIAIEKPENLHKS

Cyk3, Q07533 = target: T13, Cyk3, Q07533; settings: median of control spots 1451
T13 sequence (Q07533 1-83, looked up): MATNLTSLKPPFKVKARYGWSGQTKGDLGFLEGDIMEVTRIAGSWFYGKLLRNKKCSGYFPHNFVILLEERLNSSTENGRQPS

Lsb1, P53281 = target: T14, Lsb1, P53281; settings: median of control spots 388
T14 sequence (P53281 45-122, looked up): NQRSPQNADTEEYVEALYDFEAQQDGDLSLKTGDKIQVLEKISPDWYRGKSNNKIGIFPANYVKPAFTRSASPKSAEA

Lsb3, P43603 = target: T15, Lsb3, P43603; settings: median of control spots 406
T15 sequence (P43603 385-451, looked up): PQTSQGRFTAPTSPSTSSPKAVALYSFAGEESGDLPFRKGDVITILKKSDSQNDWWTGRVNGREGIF

Bzz1-2, P38822 = target: T16, Bzz1-2, P38822; settings: median of control spots 4538
T16 sequence (P38822 568-633, looked up): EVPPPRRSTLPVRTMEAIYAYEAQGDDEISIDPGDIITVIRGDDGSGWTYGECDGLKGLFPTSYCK

Bem1-2, P29366 = settings: median of control spots 4347
Bbc1, P47068 = target: T17, Bbc1, P47068; settings: median of control spots 796
T17 sequence (P47068 1-78, looked up): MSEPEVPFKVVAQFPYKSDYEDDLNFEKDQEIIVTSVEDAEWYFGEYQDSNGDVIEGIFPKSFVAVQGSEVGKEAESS

Boi2, P39969 = target: T18, Boi2, P39969; settings: median of control spots 1161
T18 sequence (P39969 32-116, looked up): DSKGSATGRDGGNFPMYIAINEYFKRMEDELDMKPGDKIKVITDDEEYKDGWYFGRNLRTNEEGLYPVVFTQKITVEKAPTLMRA

Hof1, Q05080 = target: T19, Hof1, Q05080; settings: median of control spots 4086
T19 sequence (Q05080 590-669, looked up): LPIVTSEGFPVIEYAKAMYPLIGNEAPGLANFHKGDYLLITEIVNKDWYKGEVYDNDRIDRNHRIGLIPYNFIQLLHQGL

Pin3, Q06449 = target: T20, Pin3, Q06449; settings: median of control spots 2171
T20 sequence (Q06449 53-122, looked up): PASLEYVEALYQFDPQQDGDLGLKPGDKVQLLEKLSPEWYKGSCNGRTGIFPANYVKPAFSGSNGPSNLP

Nbp2, Q12163 = target: T21, Nbp2, Q12163; settings: median of control spots 357
T21 sequence (Q12163 103-180, looked up): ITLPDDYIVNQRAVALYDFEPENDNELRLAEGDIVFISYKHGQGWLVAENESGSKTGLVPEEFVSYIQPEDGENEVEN

Bem1-1, P29366 = settings: median of control spots 4282
Bem1-1, P29366, sequence (P29366 55-141): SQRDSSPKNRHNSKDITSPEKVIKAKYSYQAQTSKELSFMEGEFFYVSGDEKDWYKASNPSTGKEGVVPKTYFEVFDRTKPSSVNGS

Sho1, P40073, sequence (P40073 287-367): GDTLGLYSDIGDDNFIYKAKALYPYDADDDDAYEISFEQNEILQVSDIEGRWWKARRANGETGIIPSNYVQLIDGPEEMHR
Rvs167, P39743, sequence (P39743 419-482): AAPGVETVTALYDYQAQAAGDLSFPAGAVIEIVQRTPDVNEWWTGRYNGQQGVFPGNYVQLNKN
Bem1-2, P29366, sequence (P29366 139-227): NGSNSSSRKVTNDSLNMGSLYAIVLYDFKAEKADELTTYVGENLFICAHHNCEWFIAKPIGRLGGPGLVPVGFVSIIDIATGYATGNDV

| Binder | SPOT intensity (Pex13, P80667) | SPOT intensity (Abp1, P15891) | SPOT intensity (Myo5, Q04439) | SPOT intensity (Lsb4, P32793) | SPOT intensity (Bzz1-1, P38822) | SPOT intensity (Sla1-3, P32790) | SPOT intensity (Rvs167, P39743) | SPOT intensity (Cdc25, P04821) | SPOT intensity (Hse1, P38753) | SPOT intensity (Sho1, P40073) | SPOT intensity (Bud14, P27637) | SPOT intensity (GST) | SPOT intensity (Fus1, P11710) | SPOT intensity (Myo3, P36006) | SPOT intensity (Sla1-2, P32790) | SPOT intensity (Boi1, P38041) | SPOT intensity (Cyk3, Q07533) | SPOT intensity (Lsb1, P53281) | SPOT intensity (Lsb3, P43603) | SPOT intensity (Bzz1-2, P38822) | also measured |
| --- | --- | --- | --- | --- | --- | --- | --- | --- | --- | --- | --- | --- | --- | --- | --- | --- | --- | --- | --- | --- | --- |
| VQPTAAPATPPRHIS | 0 | 0 | 0 | 251 | 0 | 5 | 12 | 2 | 0 | 0 | 0 | 0 | 13 | 0 | 0 | 0 | 0 | 45 | 251 | 0 | SPOT intensity (Bem1-2, P29366): 0; SPOT intensity (Bbc1, P47068): 2; SPOT intensity (Boi2, P39969): 0; SPOT intensity (Hof1, Q05080): 0; SPOT intensity (Pin3, Q06449): 0; SPOT intensity (Nbp2, Q12163): 0; SPOT intensity (Bem1-1, P29366): 2 |
| NPLPKEPRLPKRKVA | 16 | 131 | 0 | 288 | 6 | 45 | 200 | 22 | 191 | 107 | 26 | 2 | 2 | 7 | 2 | 4 | 4 | 19 | 282 | 29 | SPOT intensity (Bem1-2, P29366): 1; SPOT intensity (Bbc1, P47068): 221; SPOT intensity (Boi2, P39969): 2; SPOT intensity (Hof1, Q05080): 5; SPOT intensity (Pin3, Q06449): 10; SPOT intensity (Nbp2, Q12163): 0; SPOT intensity (Bem1-1, P29366): 0 |
| VATSTSPKLPPRGKQ | 87 | 23 | 0 | 275 | 2 | 13 | 4100 | 0 | 0 | 1 | 0 | 0 | 0 | 0 | 0 | 0 | 1 | 561 | 695 | 0 | SPOT intensity (Bem1-2, P29366): 0; SPOT intensity (Bbc1, P47068): 23; SPOT intensity (Boi2, P39969): 1; SPOT intensity (Hof1, Q05080): 2; SPOT intensity (Pin3, Q06449): 15; SPOT intensity (Nbp2, Q12163): 0; SPOT intensity (Bem1-1, P29366): 6 |
| QQNRPLPQLPNRNNR | 589 | 228 | 0 | 484 | 4 | 10 | 1310 | 2 | 23 | 1600 | 4 | 0 | 2 | 0 | 0 | 1 | 0 | 176 | 484 | 0 | SPOT intensity (Bem1-2, P29366): 1; SPOT intensity (Bbc1, P47068): 40; SPOT intensity (Boi2, P39969): 1; SPOT intensity (Hof1, Q05080): 112; SPOT intensity (Pin3, Q06449): 34; SPOT intensity (Nbp2, Q12163): 0; SPOT intensity (Bem1-1, P29366): 3 |
